These results are taken from patent US20180258175A1 (ABLEXIS, published 2018).

B1: CCK-423A (antibody, V domains shown)
VH: QVQLEQSGAEVKRPGASVKVSCKASGYTFTGYYMHWVRQAPGQGLEWMGWINPNRGDTNYAQKFQGRVTMTRDTSISTAYMELSRLRSDDTAVYYCARDLEGGGPFDYWGQGTLVTVSS
VL: DIVMTQTPLSLPVTPGEPASISCRSSQSLLDSDDGNTYLDWYLQKPGQSPQLLIYTLSYRASGVPDRFSGSGSGTDFTLKISRVEAEDVGVYYCMQRIEFPSTFGQGTRLEIK
notes: AlivaMab chimeric IgG, human kappa LC; also called AlivaMab CCK423A; AlivaMab Mouse CCK423A
B2: CCK423A-IgG4κ (fully human) (antibody, V domains shown)
VH: B1 VH
VL: B1 VL
notes: also called Human IgG4κ; CCK423A-IgG4K
B3: CCK423A-IgG1κ (fully human) (antibody, V domains shown)
VH: B1 VH
VL: B1 VL
notes: also called Human IgG1κ; CCK423A-I IgG1κ
B4: CCK423A-IgG2κ (fully human) (antibody, V domains shown)
VH: B1 VH
VL: B1 VL
notes: also called Human IgG2κ
B5: CCK-415A (antibody, V domains shown)
VH: QVQLQESGPGLVKPSETLSLTCTVSGGSISSSYWTWIRQPPGKGLEWIGYIHYSGSTNYNPSLKSRVTISVDTSKNQFSLKLSSVTAADTAVYYCARGFDYWGQGTLVTVSS
VL: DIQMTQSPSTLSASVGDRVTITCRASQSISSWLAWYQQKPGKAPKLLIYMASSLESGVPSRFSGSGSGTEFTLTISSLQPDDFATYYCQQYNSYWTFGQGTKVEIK
notes: AlivaMab chimeric IgG, human kappa LC
B6: CCK-416A (antibody, V domains shown)
VH: EVQLVESGGDLVQPGGSLRLSCADSRFTFSSYSMNWVRQAPGKGLEWVSYISPSSSTIYYADSVRGRFTISRDNAKNSLYLQMNSLRNEDTAVYYCARDFPHDYGYYPHYFDYWGQGTLVTVSS
VL: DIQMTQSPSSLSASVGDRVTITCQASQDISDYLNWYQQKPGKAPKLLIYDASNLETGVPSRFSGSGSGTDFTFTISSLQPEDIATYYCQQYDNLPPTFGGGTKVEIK
notes: as for B5
B7: CCL-211A (antibody, V domains shown)
VH: QVQLQESGPGLVKPSETLSLTCTVSGGSISSYYWSWIRQPAGKGLEWIGRIYISGTTNYNPSLMSRVTMSVDTSKNQFSLKLTSVTAADTAVYYCARERLVRAFDIWGQGTMVTVSS
VL: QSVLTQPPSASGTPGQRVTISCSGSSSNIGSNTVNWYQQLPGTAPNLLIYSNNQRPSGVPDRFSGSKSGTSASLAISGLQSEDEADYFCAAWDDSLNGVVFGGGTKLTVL
notes: AlivaMab chimeric IgG, human lambda LC
B8: CCL-346A (antibody, V domains shown)
VH: QVQLQESGPGLVKPSETLSLTCTVSGGSISSYYWSWIRQPAGKGLEWIGRFYTSGSTSCNPSLKSRVTMSVDTSKNQFSLKLSSVTAADTAVYYCAREGILGYFDYWGQGTLVTVSS
VL: not shown
notes: as for B7
B9: CCL-309A (antibody, V domains shown)
VH: EVQLVESGGGLVQPGGSLRLSCAASGFTFSTYSMNWVRQAPGKGLEWVSYISSSSAIIYYADSVKGRFTISRDNAKNSLYLQMNSLRDEDTAVYYCARDLPITMIVVVMPDAFDIWGQGTMVTVSS
VL: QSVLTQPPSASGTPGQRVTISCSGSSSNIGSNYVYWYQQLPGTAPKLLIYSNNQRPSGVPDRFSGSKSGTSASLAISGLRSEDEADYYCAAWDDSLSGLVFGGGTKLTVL
notes: as for B7
B10: CCL-332A (antibody, V domains shown)
VH: EVQLVESGGGLVQPGGSLRLSCAASGFTFSSYSMNWVRQAPGKGLEWVSYISSSSSTIYYADSVKGRFTISRDNAKNSLYLQMNSLRDEDTAVYYCARDYYGSSGYYYPHAFDIWGQGTMVTVSS
VL: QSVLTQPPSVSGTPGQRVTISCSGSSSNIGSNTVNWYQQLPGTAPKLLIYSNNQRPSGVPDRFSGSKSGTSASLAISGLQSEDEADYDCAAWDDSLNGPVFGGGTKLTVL
notes: as for B7
B11: CCL-325A (antibody, V domains shown)
VH: QVQLQESGPGLVKPSETLSLTCTVSGGSISSYYWSWIRQSAGKGLEWIGHIYTSGSTNYNPSLKSRVTMSVDTSKNQFSLKLSSVTAADTAVYYCARERTVVTYFDYWGQGTLVTVSS
VL: not shown
notes: as for B7
B12: CCL-213A (antibody, V domains shown)
VH: QVQLQESGPGLVKPSETLSLTCTVSGGSISSYYWSWIRQPAGKGLEWIGRIYTSGSTKNPSLKSRVTMSVDTSKNQFSLKLSSVTAADTAVYYCARLTVVGALDYWGQGTLVTVSS
VL: not shown
notes: as for B7
B13: CCL-321A (antibody, V domains shown)
VH: EVQLVESGGGLVQPGGSLRLSCAASGFTFSSYSMNWVRQAPGKGLEWVSYISSSSSTIYYSDSVRGRFTISRDNAKNSLYLQMDSLRDEDTAVYYCARDSTMIVVVKVPDAFDIWGQGTMVTVSS
VL: not shown
notes: as for B7

The target of the first assay is T1, native CD115 on OCI-AML5 cells (UniProt P07333 20-972, limits assumed). As to the kind of experiment: cell-based or functional assay.
Regarding B1, the “IC50, inhibition of CSF-1 induced P-Tyr on CD115” value came out at 0.058 nM.
On the same count and under the same terms, next, B2: 0.06 nM; B3: 0.068 nM.
Turning to B4, the “IC50, inhibition of CSF-1 induced P-Tyr on CD115” value worked out at 0.059 nM.

In the next assay the target is T2, human CD115 extracellular domain (Sino Biological 10161-H08H) (human, UniProt P07333 20-517).
T2 construct: extracellular domain; bought recombinant protein; also called huCD115; hu-CD115
As to the kind of experiment: competition ELISA, competitor TMR 95A. (In an ELISA, binding on a coated surface is turned into a signal by an enzyme label.)
Consider B5, for which the “signal vs NO COMP=100” value came to 11%.
As to B6, the “signal vs NO COMP=100” value amounted to 21%.

The next assay deals with T2, human CD115 extracellular domain (Sino …). As to the kind of experiment: ELISA, blocking of biotin-CSF-1 binding to coated hu-CD115.
As to B1, the IC50 – broadly, the midpoint of a concentration-inhibition curve – is 0.191 nM.
On to B2, for which the half-maximal inhibitory concentration (IC50) was determined as 0.133 nM.
On the same count and under the same terms, next, B3: 0.146 nM; B4: 0.253 nM.

Another assay has the same target. As to the kind of experiment: competition ELISA, competitor TMR 100A.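 Further: clonal anti-huCD115 hybridoma supernatants tested for binding with the competitor antibody present, clones failing to bind are assigned to the competitor's epitope bin; low signal means same epitope bin as the mouse competitor antibody.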
B5: the “signal vs NO COMP=100” value was 93%.
In the case of B6, the “signal vs NO COMP=100” value amounted to 104%.

For a further assay the target is unchanged. Put plainly: ELISA, blocking of biotin-CSF-1 binding to coated hu-CD115. This is another data set of the same source.
B5 returned a half-maximal inhibitory concentration (IC50) of 0.355 nM.
The same measure, in the same setting: next, B6: 0.811 nM.
Still for that read-out and setting: to B1 belongs 0.135 nM.

The next assay shares this target. As to the kind of experiment: SPR ProteOn, mAb amine coupled, Hu CD115 analyte.
In the case of B1, the affinity, expressed as Kd, was 1.2 nM; the koff (as a rule, a measure of how fast the partners let go of each other) came out at 0.015 s⁻¹; the kon (as a rule, the second-order rate constant of association) worked out at 1.3e+07 M⁻¹ s⁻¹.
The corresponding values for B2 are 1.3 nM, 0.015 s⁻¹ and 1.1e+07 M⁻¹ s⁻¹.
Consider B3, for which binding was put at a Kd of 1.2 nM, the koff turned out to be 0.017 s⁻¹ and the on-rate constant (kon) was determined as 1.2e+07 M⁻¹ s⁻¹.
For B4, the Kd – broadly, the free concentration of one partner at which half of the binding sites on the other are occupied at equilibrium, for simple one-to-one binding – turned out to be 1.3 nM; the koff is 0.014 s⁻¹; the kon came out at 1.3e+07 M⁻¹ s⁻¹.

For another assay, the target named is T1, native CD115 on OCI-AML5 cells. As to the kind of experiment: cell-based or functional assay. This is another data set of the same source.
For B5, the “IC50, inhibition of CSF-1 induced phosphorylation of CD115” value was 0.57 nM.
Same read-out and setting: next, B6: 1.35 nM.
Still for that read-out and setting: next, B1: 0.045 nM.

In the next assay the target is T2, human CD115 extracellular domain (Sino …). Put plainly: competition ELISA, competitor TMR 35A.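 Further: clonal hybridoma supernatant antibodies added to wells after the competitor mouse antibody, lost binding signal puts an antibody in that competitor's epitope bin; low signal means same epitope bin as the mouse competitor antibody.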
With B5, the “signal vs NO COMP=100” value was determined as 96%.
The same measure, in the same setting: to B6 belongs 107%.

The target is the same in another assay. Put plainly: competition ELISA, competitor TMR 20A.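 Further: epitope binning by ELISA, anti-huCD115 hybridoma supernatant antibodies tested for binding to huCD115 with the competitor antibody present, loss of binding placing them in the competitor's bin; low signal means same epitope bin as the mouse competitor antibody.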
For the molecule B5, the “signal vs NO COMP=100” value came to 97%.
Still for that read-out and setting: next, B6: 94%.

For the next assay the target is unchanged. Put plainly: ELISA, supernatant on huCD115.
Turning to B7, the binding result was “binds”.
On to B8, for which the binding result is “binds”.
Same read-out and setting: next, B9: “binds”; B10: “binds”; B11: “binds”.
B12: the binding result is given as “binds”.
Same read-out and setting: to B13 belongs “binds”.

For another assay, the target named is T1, native CD115 on OCI-AML5 cells. As to the kind of experiment: FACS, supernatant on OCI-AML5 cells. (A flow cytometer gives signals particle by particle.)
As to B7, the binding result is listed as “binds”.
For the molecule B8, the binding result was “binds”.
In the case of B9, the binding result is reported as “binds”.
As for B10, the binding result is on record as “binds”.
On the same count and under the same terms, to B11 belongs “binds”; to B12, “binds”.
With B13, the binding result is “binds”.

For a further assay, the target named is T2, human CD115 extracellular domain (Sino …). As to the kind of experiment: competition ELISA, competitor TMR 44B.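 Further: binding of antibodies from single-clone hybridoma supernatants to huCD115 measured with the competitor antibody present, a drop in signal meaning both share an epitope bin; low signal means same epitope bin as the mouse competitor antibody.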
With B5, the “signal vs NO COMP=100” value came to 46%.
Regarding B6, the “signal vs NO COMP=100” value amounted to 53%.

For the next assay the target is unchanged. Put plainly: competition ELISA, competitor TMR 24A.
As to B5, the “signal vs NO COMP=100” value amounted to 31%.
On the same count and under the same terms, to B6 belongs 37%.
